Data reported in patent publication US20210032298.
Substitutions are numbered along the chain they refer to.

Assays:
[1] = biological target: T1, Myc-tagged CMTM6 C90S mutant (expressed in HEK293 cells)
T1 chain: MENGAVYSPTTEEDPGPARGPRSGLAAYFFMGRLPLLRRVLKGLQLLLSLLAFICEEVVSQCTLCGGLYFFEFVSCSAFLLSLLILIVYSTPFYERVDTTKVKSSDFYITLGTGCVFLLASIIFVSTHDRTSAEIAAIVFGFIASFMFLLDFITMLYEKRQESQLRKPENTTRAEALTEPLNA

[2] = biological target: T2, Myc-tagged CMTM6 C90S+C115S double mutant (expressed in HEK293 cells)
T2 chain: T1 chain with C115S

[3] = biological target: T3, Myc-tagged CMTM6, wild type (expressed in HEK293 cells)
T3 chain: T1 chain with S90C

[4] = biological target: T4, Myc-tagged CMTM6 C115S mutant (expressed in HEK293 cells)
T4 chain: T1 chain with S90C, C115S

[5] = biological target: T5, transmembrane protein 192 (TMEM192), Q8IY95
T5 chain: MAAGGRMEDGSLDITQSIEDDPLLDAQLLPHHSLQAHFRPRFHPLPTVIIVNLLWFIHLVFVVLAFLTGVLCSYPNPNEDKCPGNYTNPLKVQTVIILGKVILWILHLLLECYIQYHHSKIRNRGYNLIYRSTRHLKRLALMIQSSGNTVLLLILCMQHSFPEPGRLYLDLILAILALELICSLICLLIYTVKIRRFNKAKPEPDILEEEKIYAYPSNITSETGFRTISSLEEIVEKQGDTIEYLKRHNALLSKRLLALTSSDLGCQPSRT

[6] = biological target: T6, Niemann-Pick C1 (NPC1; endogenous, in MDA-MB-231 cells), O15118
T6 chain: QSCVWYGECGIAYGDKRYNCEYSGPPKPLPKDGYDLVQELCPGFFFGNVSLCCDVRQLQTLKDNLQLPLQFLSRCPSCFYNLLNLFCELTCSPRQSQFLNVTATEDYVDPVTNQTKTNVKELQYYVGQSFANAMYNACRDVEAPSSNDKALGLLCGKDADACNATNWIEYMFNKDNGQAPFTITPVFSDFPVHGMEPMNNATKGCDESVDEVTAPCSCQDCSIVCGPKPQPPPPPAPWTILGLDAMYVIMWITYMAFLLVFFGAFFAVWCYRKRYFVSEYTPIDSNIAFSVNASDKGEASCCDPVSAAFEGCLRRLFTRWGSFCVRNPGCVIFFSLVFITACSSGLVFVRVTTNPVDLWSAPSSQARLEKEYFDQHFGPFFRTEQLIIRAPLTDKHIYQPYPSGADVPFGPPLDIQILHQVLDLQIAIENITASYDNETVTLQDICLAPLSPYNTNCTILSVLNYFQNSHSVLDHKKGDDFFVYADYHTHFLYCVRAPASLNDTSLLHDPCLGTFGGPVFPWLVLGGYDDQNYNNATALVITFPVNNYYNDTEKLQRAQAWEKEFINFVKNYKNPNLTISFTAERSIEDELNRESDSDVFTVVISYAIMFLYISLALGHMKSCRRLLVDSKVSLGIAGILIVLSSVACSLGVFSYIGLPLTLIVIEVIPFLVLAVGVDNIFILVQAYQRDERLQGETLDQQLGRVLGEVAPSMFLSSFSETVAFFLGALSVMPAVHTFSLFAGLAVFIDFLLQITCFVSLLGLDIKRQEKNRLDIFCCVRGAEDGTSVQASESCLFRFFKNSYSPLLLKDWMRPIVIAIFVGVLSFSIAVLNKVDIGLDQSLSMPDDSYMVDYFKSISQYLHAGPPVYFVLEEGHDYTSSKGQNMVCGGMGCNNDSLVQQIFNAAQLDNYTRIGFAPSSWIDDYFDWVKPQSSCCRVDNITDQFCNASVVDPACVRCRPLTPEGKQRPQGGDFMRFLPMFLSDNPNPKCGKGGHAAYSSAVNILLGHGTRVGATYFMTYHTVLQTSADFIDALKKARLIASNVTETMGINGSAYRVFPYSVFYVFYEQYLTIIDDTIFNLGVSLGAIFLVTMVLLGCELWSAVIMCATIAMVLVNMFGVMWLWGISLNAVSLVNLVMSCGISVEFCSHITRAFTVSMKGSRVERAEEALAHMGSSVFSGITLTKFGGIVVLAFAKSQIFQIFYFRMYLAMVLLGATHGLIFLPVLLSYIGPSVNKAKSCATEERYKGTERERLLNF

B1: FLAG-tagged DHHC3 (over-expressed in HEK293 cells) (protein)
chain: MMLIPTHHFRNIERKPEYLQPEKCVPPPYPGPVGTMWFIRDGCGIACAIVTWFLVLYAEFVVLFVMLIPSRDYVYSIINGIVFNLLAFLALASHCRAMLTDPGAVPKGNATKEFIESLQLKPGQVVYKCPKCCSIKPDRAHHCSVCKRCIRKMDHHCPWVNNCVGENNQKYFVLFTMYIALISLHALIMVGFHFLHCFEEDWTKCSSFSPPTTVILLILLCFEGLLFLIFTSVMFGTQVHSICTDETGIEQLKKEERRWAKKTKWMNMKAVFGHPFSLGWASPFATPDQGKADPYQYVV
For B1, the “incorporation of 3[H]-palmitate into immunoprecipitated Myc-CMTM6 (HEK293 over-expression)” value (“incorporation … (HEK293 over-expression)” for short) [1] was “mutation of C90 (C→S) caused palmitoylation to be diminished by ˜50%”, the “incorporation … (HEK293 over-expression)” value [2] was “both mutations together (C90S+C115S) did not diminish palmitoylation (FIG. 23A, lane 6) more than C90S alone” and the “incorporation … (HEK293 over-expression)” value [3] was “CMTM6 incorporates 3[H]-palmitate when DHHC3 is present (FIG. 23A, lane 3), but not when DHHC3 is absent (FIG. 23A, lane 2)”. For the same protein, the “incorporation … (HEK293 over-expression)” value [4] was “a C115 mutation did not diminish incorporation of 3[H]-palmitate”.

B2: DHHC3 (protein acyltransferase; endogenous, in MDA-MB-231 cells) (protein)
chain: B1 chain
B2 was tested, and the “palmitoylation of the substrate after DHHC3 ablation” value [5] was 4/4 putative DHHC3 substrates (ERGIC3, CMTM6, NPC1, transmembrane protein 192 (TMEM192)) lose substantial palmitoylation when DHHC3 is ablated and the “palmitoylation of the substrate after DHHC3 ablation” value [6] was 4/4 putative DHHC3 substrates (ERGIC3, CMTM6, NPC1, transmembrane protein 192 (TMEM192)) lose substantial palmitoylation when DHHC3 is ablated.
